Experimental data reported in US20090035308A1.

Target: Notch1-Fc
Test: competition ELISA: Dll4-Fc premixed with 50 ng Dll4 (E8)-AP on coated Notch1-Fc; reference Dll4-L1-Fc

- fold difference between L1 and L2 fusion proteins: 3 fold
B1: Dll4-L2-Fc (Fc fusion, part only; not given: linker, Fc, not shown: a dimerising Fc or GST)
chain, part: SGVFQLQLQEFINERGVLASGRPCEPGCRTFFRVCLKHFQAVVSPGPCTFGTVSTPVLGTNSFAVRDDSSGGGRNPLQLPFNFTWPGTFSLIIEAWHAPGDDLRPEALPPDALISKIAIQGSLAVGQNWLLDEQTSTLTRLRYSYRVICSDNYYGDNCSRLCKKRNDHFGHYVCQPDGNLSCLPGWTGEYCQQPICLSGCHEQNGYCSKPAECLCRPGWQGRLCNECIPHNGCRHGTCSTPWQCTCDEGWGGLFCDQDLNYCTHHSPCKNGATCSNSGQRSYTCTCRPGYTGVDCELELSECDSNPCRNGGSCKDQEDGYHCLCPPGYYGLHCEHSTLSCADSPCFNGGSCRERNQGANYACECPPNFTGSNCEKKVDRCTSNPCANGGQCLNRGP
